Laboratory results: US20260184780A1 (MONASH UNIVERSITY, published 2026)

Legend:
[1] = target: T1, human PAR4 on isolated human platelets (human, UniProt Q96RI0 18-385); assay: cell-based or functional assay
T1 sequence: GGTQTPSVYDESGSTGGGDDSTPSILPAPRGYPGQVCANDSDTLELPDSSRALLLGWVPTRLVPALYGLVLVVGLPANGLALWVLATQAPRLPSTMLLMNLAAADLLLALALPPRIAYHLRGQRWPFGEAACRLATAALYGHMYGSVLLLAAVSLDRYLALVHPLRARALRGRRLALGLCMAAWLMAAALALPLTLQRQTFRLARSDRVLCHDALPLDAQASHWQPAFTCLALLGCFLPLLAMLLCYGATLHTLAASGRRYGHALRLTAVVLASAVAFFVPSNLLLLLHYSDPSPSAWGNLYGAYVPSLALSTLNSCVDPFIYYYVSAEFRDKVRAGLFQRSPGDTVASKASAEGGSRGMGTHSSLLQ

[2] = target: T2, hPAR4 (naked) peptide (human); assay: ELISA, purified mAb on hPAR4 peptide
T2 construct: also called native PAR4 peptide; hPAR4 peptide
T2 peptide: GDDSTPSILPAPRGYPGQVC

[3] = target: T2, hPAR4 (naked) peptide; assay: SPR Biacore T200, mAb captured by anti-mouse Fc, hPAR4 peptide as analyte
Protocol: A series S CM5 sensor chip was activated with standard EDC/NHS amine coupling chemistry using the manufacturers recommended protocol with Goat anti-mouse IgG Fc. Anti-hPAR4 mAbs were captured at 1-2 ug/ml for 2 minutes at 10 ul/minute on flow cell 2 (FC2) and flow cell 1 (FC1) was used as a reference channel. […] Blank injections of buffer alone were also performed. All injections were performed in duplicate and in a random order.
(§1) The kinetics of the binding interaction between the mAbs and hPAR4 was measured using Surface Plasmon Resonance (SPR; Biacore) by two different methods: 1. Anti-mouse Fc mAb capture method and 2. Streptavidin (SA) chip to capture biotinylated peptide. The ka(on) rate and kd(off) rates and KD were measured and fitted to a Langmuir model using the Biacore evaluation software.

[4] = target: T1, human PAR4 on isolated human platelets; assay: flow cytometry on isolated human platelets
[5] = target: T3, hPAR4 11-20 peptide (human); assay: ELISA, peptide coated on the plate, purified mAb, background subtracted
T3 construct: Range counted on the hPAR4 immunising peptide; the C-terminal cysteine was removed, so nine residues are given; also called peptide 11-20
T3 peptide: APRGYPGQV
Protocol: (§2) Briefly the peptides were coated onto a Nunc maxisorp ELISA plate at 10 ug/ml overnight in coating buffer (0.1 M sodium carbonate pH8.0). Purified mAbs diluted in PBS were used in place of supernatant.

[6] = target: T4, hPAR4 8-15 peptide (human); assay: as above
T4 construct: Range counted on the hPAR4 immunising peptide; also called peptide 8-15; core peptide
T4 peptide: ILPAPRGY
Protocol: as §2

[7] = target: T5, hPAR4 1-9 peptide (human); assay: as above
T5 construct: Range counted on the hPAR4 immunising peptide; also called peptide 1-9
T5 peptide: GDDSTPSIL
Protocol: as §2

[8] = target: T6, hPAR4 (Biotin) peptide (human, biotin on the C-terminal lysine (SKB)); assay: SPR Biacore T200, biotin peptide on SA chip, whole mAb as analyte
T6 construct: also called hPAR4-biotinylated peptide; biotin-coupled human PAR4 peptide
T6 peptide: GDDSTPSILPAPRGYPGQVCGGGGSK
Protocol: as §1

[9] = target: T6, hPAR4 (Biotin) peptide; assay: SPR Bio-Rad ProteOn XPR36, biotin peptide captured, purified mAb as analyte
[10] = target: T7, hPAR1 (Biotin) peptide (human, not fully specified; biotin on the C-terminal lysine (SKB)); assay: ELISA, hybridoma supernatant
T7 construct: also called PAR1 peptide; PAR1 screening peptide
T7 peptide: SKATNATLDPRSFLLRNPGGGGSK

[11] = target: T8, hPAR3 (Biotin) peptide (human, biotin on the C-terminal lysine (SKB)); assay: ELISA, hybridoma supernatant
T8 construct: also called PAR3 peptide; PAR3 screening peptide
T8 peptide: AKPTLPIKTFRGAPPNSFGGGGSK

[12] = target: T2, hPAR4 (naked) peptide; assay: ELISA, hybridoma supernatant
[13] = target: T7, hPAR1 (Biotin) peptide; assay: ELISA, hybridoma supernatant on immobilised peptide, binding as fold above control
Protocol: (§3) Wells were then washed with an automated plate washer (300 μl 1×PBS, 3 times). […] Wells were washed as above. A set of substrate tablets (1×silver, 1×gold) into 20 ml of ddH₂O by shaking vigorously on the thermomixer for 6 mins at room temperature. 50 μl of substrate ([…]™ […] Tablets (Sigma-Aldrich, N2770-50SET)) was added into each well and incubated for 20-25 mins at room temperature. 50 μl of STOP solution (2M Sodium Hydroxide, Solid (NaOH) (Merck, Cas #1310-73-2)) was added into each well to stop the reaction. Absorbance was read at 405 nm immediately after adding STOP solution with the ELISA reader, using the ‘RdrOle4’ software.
(§4) In order to determine the specificity of the anti-hPAR4 clones to PAR4, ELISA screening was performed as described above.

[14] = target: T8, hPAR3 (Biotin) peptide; assay: as above
Protocol: as §3, §4

[15] = target: T9, hPAR2 (Biotin) peptide (human, not fully specified; biotin on the C-terminal lysine (SKB)); assay: as above
T9 construct: also called PAR2 peptide; PAR2 screening peptide
T9 peptide: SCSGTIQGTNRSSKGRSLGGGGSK
Protocol: as §3, §4

[16] = target: T7, hPAR1 (Biotin) peptide; assay: ELISA, biotinylated peptide on streptavidin plate, absorbance 405 nm
Protocol: (§5) Biotinylated peptides (hPAR1-4) were diluted in Wash buffer and allowed to bind to the blocked Streptavidin coated wells at 10 ug/ml (100 ul per well) for 1 hour at room temperature with gentle mixing. Wells were washed 3 times as above and purified anti-hPAR4 mAbs prepared at 10 ug/ml in Wash buffer were allowed to bind (100 ul/well) for 1 hour at room temperature with gentle mixing. The plate was washed 3 times as above and anti-mouse Fc conjugated to Alkaline phosphatase (AP) at 0.3 ug/ml (100 ul) was added to the wells for 1 hour as above. Wells were washed 3 times as above and developed with Alkaline Phosphatase substrate as described for the screening supernatant ELISA.
(§6) To further characterise the purified anti-hPAR4 mAb's the specificity of the mAbs to hPAR1, hPAR2, hPAR3 and hPAR4 biotinylated peptides was performed.

[17] = target: T8, hPAR3 (Biotin) peptide; assay: as above
Protocol: as §5, §6

[18] = target: T9, hPAR2 (Biotin) peptide; assay: as above
Protocol: as §5, §6

[19] = target: T2, hPAR4 (naked) peptide; assay: ELISA, purified mAb on hPAR4 peptide coated wells, anti-mouse Fc-AP, absorbance 405 nm
Protocol: The experiment was completed with purified mAbs diluted in PBS instead of hybridoma supernatants.
The reactivity of seven purified anti-hPAR4 mAbs was analysed by ELISA (see Table 4).

[20] = target: T1, human PAR4 on isolated human platelets; assay: cell-based or functional assay; remark: listed apart in the source

B1: 5A.RC3.F10b.H4b (antibody, IgG2a, V domains shown)
VH: QVQLVESGGGVVQPGRSLRLSCAASGFTLSNYGMHWVRQAPGKGLEWVSVIWYDGSNKHYADSVKGRFTISRDNSKNTLYLQMNSLRAEDTAVYYCARESIVEVLPPFDYWGQGTLVTVSS
VL: KIVLTQSPGTLSLSPGERVTLSCRASQRVRNNYLAWFQQKPGQAPRLFIYGASSRATGIPDRFSGSGSGTDFIFTISRLEPEDFAVYYCQQYGNSYTFGQGTKLEIK
notes: also called MoB5ARC3; MoB5A-RC3.F10b.H4b
Q: Which “IC50 (ug/ml) for inhibition of platelet aggregation, 0.1 U/ml thrombin” value [1] does the source give for B1 here?
A: The value was 1.6 µg/mL.

Q: What about the “ELISA Pos:Neg ratio” value [2] of the same binder?
A: Its value is 13.9 ratio.

Q: What about the Kd [3] of the same binder?
A: The Kd was 14800 pM.

Q: And the koff [3]?
A: Its koff is 0.00487 s⁻¹.

Q: What about the kon [3] of the same binder?
A: Its kon is 330000 M⁻¹ s⁻¹.

Q: And the “GMFI at 10 ug/ml over isotype control” value [4]?
A: Its value is 39.

Q: Does B1 bind [5]?
A: Result: no binding

Q: Does B1 bind [6]?
A: Result: binds

Q: Does B1 bind [7]?
A: Result: no binding

Q: And the Kd [8]?
A: The Kd was 320 pM.

Q: What about the koff [8] of the same binder?
A: Its koff is 0.000417 s⁻¹.

Q: And the kon [8]?
A: Its kon is 1.32e+06 M⁻¹ s⁻¹.

Q: What about the Kd [9] of the same binder?
A: The Kd was roughly 400 pM.

Q: And the “binding to PAR1 ratio” value [10]?
A: The value was 1 ratio.

Q: And the “binding to PAR3 ratio” value [11]?
A: Its value is 1.1 ratio.

Q: What about the “binding to PAR4 ratio” value [12] of the same binder?
A: Its value is 15.2 ratio.

Q: Does B1 bind [13]?
A: Result: no binding

Q: Does B1 bind [14]?
A: Result: no binding

Q: Does B1 bind [15]?
A: Result: no binding

B2: 5F.RF3.A7b.C9 (antibody, IgG2b, V domains shown)
VH: QVQLVQSGAEVKKPGASVKVSCKTSAYTFTNYGISWVRQAPGQGLEWMGWISPYNGNTNYAQKLQGRVTMTTDTSTRTAYMELRSLRSDDTAVYYCAREYNRSSRGRYYYYGMDVWGQGTTVTVSS
VL: EIVLTQSPGTLSLSPGERATLSCRASQSVSSNYLAWYQKKPGQAPRLLISGASSRATGIPDRFSGSGSGTDFTLTISRLEPEDFAVYYCQQYGSSPWTFGQGTKVEIK
notes: also called MoB5F-RF3.A7b.C9; MoB5F F3
Q: Does B2 bind [16]?
A: Result: no binding (tested: 10 ug/ml)

Q: Does B2 bind [17]?
A: Result: no binding (tested: 10 ug/ml)

Q: Does B2 bind [18]?
A: Result: no binding (tested: 10 ug/ml)

Q: And the “GMFI at 10 ug/ml over isotype control” value [4]?
A: The value was 53.

Q: What about the “EC50 (read off the curve)” value [19] of the same binder?
A: The value was roughly 0.1 µg/mL.

Q: Does B2 bind [7]?
A: Result: no binding

Q: What about the “platelet aggregation, % of control” value [20] of the same binder?
A: The value was < 50 % of control.
